One molecule from publication PMC6557205, “Functional interplay between YY1 and CARM1 promotes oral carcinogenesis” can be followed below.

This data set has as its target His-YY1 full length (UniProt P25490 1-414). Description: EMSA; unlabelled probe competes; anti-His supershift; EMSA buffer 10% glycerol, 75 mM KCl, 10 mM HEPES (pH not stated), 5 mM MgCl2; 30 C, 30 min (Fig 7F: 15 min methylation + 15 min binding); 5% native PAGE in 0.5X TBE at 4 C. As to conditions: protein: recombinant; tags: His (pET28b); label: 32P 5' end label on one strand; blunt. (A gel shift assay detects complexes by their altered migration in electrophoresis.)

Sequence of His-YY1 full length (P25490 whole entry): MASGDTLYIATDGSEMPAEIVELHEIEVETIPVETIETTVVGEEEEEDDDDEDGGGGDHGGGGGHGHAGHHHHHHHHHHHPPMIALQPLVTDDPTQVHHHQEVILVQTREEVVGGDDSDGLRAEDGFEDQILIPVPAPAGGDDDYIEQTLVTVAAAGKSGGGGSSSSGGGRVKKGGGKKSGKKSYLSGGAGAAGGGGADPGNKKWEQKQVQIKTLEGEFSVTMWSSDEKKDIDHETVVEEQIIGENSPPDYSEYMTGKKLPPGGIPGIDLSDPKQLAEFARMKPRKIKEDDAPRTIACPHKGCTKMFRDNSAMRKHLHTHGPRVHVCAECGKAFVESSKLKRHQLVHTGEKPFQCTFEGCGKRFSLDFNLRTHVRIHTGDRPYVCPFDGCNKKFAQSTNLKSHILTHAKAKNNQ

B1: CARM1proYY1_BS1 (dsDNA)
DNA 1: GGGACCTCTGGATCCCATGGTTGGATGGCTGGGGGGTGGA
DNA 2: TCCACCCCCCAGCCATCCAACCATGGGATCCAGAGGTCCC
With B1, the binding result is “binds”.
